Legend:
[1] = biological target: T1, recombinant human TGFβ2 (human, UniProt P61812 303-414); assay: cell-based or functional assay
T1 sequence (looked up): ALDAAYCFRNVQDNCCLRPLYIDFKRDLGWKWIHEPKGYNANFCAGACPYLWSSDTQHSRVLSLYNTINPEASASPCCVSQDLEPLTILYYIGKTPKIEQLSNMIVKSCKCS

[2] = biological target: T2, TGFβ3 (UniProt P10600 301-412); assay: cell-based or functional assay
T2 sequence (looked up): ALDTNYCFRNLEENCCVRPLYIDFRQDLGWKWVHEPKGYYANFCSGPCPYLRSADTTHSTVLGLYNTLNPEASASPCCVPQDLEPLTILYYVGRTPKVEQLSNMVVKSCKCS

[3] = biological target: T1, recombinant human TGFβ2; assay: cell-based or functional assay; remark: listed apart in the source
[4] = biological target: T1, recombinant human TGFβ2; assay: BIACore, method of Karlsson et al.
[5] = biological target: T3, recombinant human TGFβ1 (human, UniProt P01137 279-390); assay: BIACore, antigen coated on the sensor chip
T3 construct: mature; also called TGFbeta1
T3 sequence (P01137 279-390 limits assumed): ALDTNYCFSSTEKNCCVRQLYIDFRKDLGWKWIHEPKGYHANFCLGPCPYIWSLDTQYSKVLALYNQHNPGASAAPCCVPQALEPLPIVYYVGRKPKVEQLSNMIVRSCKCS

[6] = biological target: T2, TGFβ3; assay: BIACore, antigen coated on the sensor chip
[7] = biological target: T1, recombinant human TGFβ2; assay: radioreceptor assay, inhibition of 125I-TGFβ2 binding to A549 cells; concentration of antibody combining sites
Method: (§1) Cells are seeded at 1-2×10^5 cells/ml/well into the wells of 24-well cluster plates and grown for 24 h in serum-free DMEM. Cell monlayers are washed twice with serum-free DMEM and 0.5 ml binding medium (DMEM/Hams F12 (Sigma D-6421) containing 0.1% (v/v) BSA added to each well.
(§2) Aliqouts of ¹²⁵I-TGFβ1 or TGFβ2 (70-90 TBq/mmol; Amersham International) at 20 pM are preincubated with antibody in binding medium at room temperature for 1 h. Duplicate samples of 0.5 ml of TGFβ/antibody mixtures are then added to the cell monlayers and are incubated at 37° C. for 1-2 h. Control wells contain TGFβ only. Unbound TGFβ is removed by washing 4 times with Hank's balanced salt solution containing 0.1% BSA. Cells are solubilised in 0.8 ml 25 mM Tris HCl pH 7.5, 10% glycerol, 1% Triton X-100 at room temperature for 20 min. The contents of each well are removed and ¹²⁵I measured in a gamma counter.

[8] = biological target: T4, human lymphotoxin (TNFβ) (human, UniProt P01374 35-205, limits assumed); assay: ELISA, antigen coated at 10 µg/ml, anti-human Fc alkaline phosphatase conjugate, OD405 nm [b]
T4 sequence (looked up): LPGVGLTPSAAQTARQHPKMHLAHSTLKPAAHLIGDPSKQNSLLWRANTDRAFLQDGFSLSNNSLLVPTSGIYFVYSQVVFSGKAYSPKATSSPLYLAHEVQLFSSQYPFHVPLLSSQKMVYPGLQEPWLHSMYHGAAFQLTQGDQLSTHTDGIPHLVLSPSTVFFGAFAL
Method: (§3) For both FIG. 13(a) and FIG. 13(b), antigens 1 to 15 were used for coating the plate at a concentration of 10 μg/ml in PBS. The TGFbetas were coated at 0.2 μg/ml in PBS. Coating was performed at 4° C. overnight. […] of each antigen was used per well and duplicates of each antigen for each IgG to be tested. IgG samples were incubated with the coated antigens at 37° C. for 2 hours after blocking with 2%. marvel-PBS. The labelled second antibody was a mouse anti-human Fc1 alkaline phosphatase conjugated and the substrate used to detect bound second antibody was PNPP at 1 mg/ml with the absorbance read at 405 nm.

[9] = biological target: human insulin (human, UniProt P01308 25-54; P01308 90-110, limits assumed); assay: as above
human insulin, sequence (P01308 25-54 limits assumed, chain 1 of 2): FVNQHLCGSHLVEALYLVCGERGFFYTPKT
human insulin, sequence (P01308 90-110 limits assumed, chain 2 of 2): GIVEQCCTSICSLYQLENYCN
Method: as §3

[10] = biological target: human serum albumin (human, UniProt P02768 25-609); assay: as above
human serum albumin, sequence (P02768 25-609 limits assumed): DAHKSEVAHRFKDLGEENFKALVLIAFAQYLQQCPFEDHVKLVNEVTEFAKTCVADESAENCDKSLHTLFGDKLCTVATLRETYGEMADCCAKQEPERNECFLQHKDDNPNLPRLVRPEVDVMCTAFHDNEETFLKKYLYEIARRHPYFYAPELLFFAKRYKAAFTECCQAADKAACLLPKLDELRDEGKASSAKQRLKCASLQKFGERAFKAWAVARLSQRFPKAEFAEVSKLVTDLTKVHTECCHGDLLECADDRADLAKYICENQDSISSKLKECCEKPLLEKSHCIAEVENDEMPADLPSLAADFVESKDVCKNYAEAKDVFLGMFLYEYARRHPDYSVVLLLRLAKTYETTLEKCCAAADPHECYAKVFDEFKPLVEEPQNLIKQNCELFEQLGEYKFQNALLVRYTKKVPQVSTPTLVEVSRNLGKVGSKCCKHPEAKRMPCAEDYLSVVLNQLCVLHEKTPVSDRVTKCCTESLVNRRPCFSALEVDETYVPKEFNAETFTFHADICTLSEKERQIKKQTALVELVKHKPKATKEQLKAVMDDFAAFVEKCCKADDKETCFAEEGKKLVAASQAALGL
Method: as §3

[11] = biological target: oxazolone-bovine serum albumin (bovine, UniProt P02769 25-607, oxazolone hapten coupled, sites not stated); assay: as above
oxazolone-bovine serum albumin, sequence (P02769 25-607 limits assumed): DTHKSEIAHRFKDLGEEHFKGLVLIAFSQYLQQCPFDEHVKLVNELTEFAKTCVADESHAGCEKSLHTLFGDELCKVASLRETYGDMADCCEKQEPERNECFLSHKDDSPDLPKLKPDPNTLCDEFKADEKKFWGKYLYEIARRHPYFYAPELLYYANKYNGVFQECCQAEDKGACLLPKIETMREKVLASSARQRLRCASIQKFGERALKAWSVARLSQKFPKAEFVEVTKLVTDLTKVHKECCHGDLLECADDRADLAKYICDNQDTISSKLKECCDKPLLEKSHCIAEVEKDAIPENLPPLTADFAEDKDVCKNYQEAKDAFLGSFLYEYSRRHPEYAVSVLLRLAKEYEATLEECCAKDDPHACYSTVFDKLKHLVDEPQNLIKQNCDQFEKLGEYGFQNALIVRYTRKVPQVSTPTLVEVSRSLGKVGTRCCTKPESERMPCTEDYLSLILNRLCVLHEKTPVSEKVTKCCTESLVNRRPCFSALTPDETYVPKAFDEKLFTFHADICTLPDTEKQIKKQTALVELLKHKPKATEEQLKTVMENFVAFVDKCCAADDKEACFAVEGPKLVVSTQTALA
Method: as §3

[12] = biological target: T5, chicken egg white trypsin inhibitor (chicken, UniProt P01005 25-210); assay: as above
T5 sequence (looked up): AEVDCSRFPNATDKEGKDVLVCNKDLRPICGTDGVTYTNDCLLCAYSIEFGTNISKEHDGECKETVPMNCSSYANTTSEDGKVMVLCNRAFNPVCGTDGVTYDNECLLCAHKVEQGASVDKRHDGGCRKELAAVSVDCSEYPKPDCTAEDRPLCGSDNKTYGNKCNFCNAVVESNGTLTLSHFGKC
Method: as §3

[13] = biological target: T6, ovalbumin (UniProt P01012 2-386); assay: as above
T6 sequence (looked up): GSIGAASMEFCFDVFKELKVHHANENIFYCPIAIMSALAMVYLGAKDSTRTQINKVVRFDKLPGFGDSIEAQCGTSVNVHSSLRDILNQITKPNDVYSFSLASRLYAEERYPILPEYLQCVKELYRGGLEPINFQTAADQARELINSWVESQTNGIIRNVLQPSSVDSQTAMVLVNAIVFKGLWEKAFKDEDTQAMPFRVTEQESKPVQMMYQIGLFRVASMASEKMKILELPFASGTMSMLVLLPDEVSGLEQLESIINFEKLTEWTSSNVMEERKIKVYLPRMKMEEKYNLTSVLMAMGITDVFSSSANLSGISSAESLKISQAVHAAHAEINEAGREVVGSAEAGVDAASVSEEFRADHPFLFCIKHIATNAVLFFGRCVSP
Method: as §3

[14] = biological target: hen egg lysozyme (hen, UniProt P00698 19-147); assay: as above
hen egg lysozyme, sequence (P00698 19-147): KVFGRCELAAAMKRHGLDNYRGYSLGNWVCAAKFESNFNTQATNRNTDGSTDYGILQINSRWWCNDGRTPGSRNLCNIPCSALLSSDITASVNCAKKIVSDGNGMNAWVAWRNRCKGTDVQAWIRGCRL
Method: as §3

[15] = biological target: T7, bovine serum albumin (bovine, UniProt P02769 25-607); assay: as above
T7 construct: also called BSA
T7 sequence (P02769 25-607 limits assumed): as the sequence (P02769 25-607 limits assumed) above
Method: as §3

[16] = biological target: T1, recombinant human TGFβ2; assay: BIACore, antigen on the chip
[17] = biological target: T3, recombinant human TGFβ1; assay: BIACore, method of Karlsson et al.
[18] = biological target: lysozyme (coated onto a BIACore sensor chip) (Gallus gallus (Chicken), UniProt P00698 19-147); assay: BIACore, lysozyme coated on the sensor chip
lysozyme (coated onto a BIACore sensor chip), sequence (P00698 19-147 limits assumed): as the sequence (P00698 19-147) above

[19] = biological target: T3, recombinant human TGFβ1; assay: radioreceptor assay, inhibition of 125I-TGFβ1 binding to A549 cells; concentration of antibody combining sites
Method: as §1, §2

[20] = biological target: T3, recombinant human TGFβ1; assay: specificity ELISA, TGFβ coated at 0.2 µg/ml
Method: Clones identified as binding TGFβ-1 rather an uncoated well, as described above, were further analysed for fine specificity. […] Microtitre plate wells were coated with 50 μl of either 0.2 μg/ml TGFβ1, 0.2 μg/ml TGFβ-2, 10 μg/ml bovine serum albumin (BSA) or PBS (the uncoated well). After preblocking both the phage (or soluble scFv) and the microtitre plates, 50 μl blocked phage (or soluble scFv) from each clone was added to a well coated with either TGFβ-1, TGFβ-2, BSA or an uncoated well. As above, alkaline phosphatse activity was visualised using either the chromagenic substrate pNPP (Sigma) or the Ampak system (Dako). […]

B1: 6H1 IgG4 (antibody, V domains shown)
VH: EVQLVESGGGVVQPGRSLRLSCAASGFTFSSYGMHWVRQAPGKGLEWVAVIWYDGSNKYYADSVKGRFTISRDNSKNTLYLQMDSLRAEDTAVYYCGRTLESSLWGQGTLVTVSS
VL: DVVMTQSPSSLSASVGDRVTITCRASQGISNYLAWYQQKPGKAPKLLIYKASTLESGVPSRFSGSGSGTEFTLTISSLQPEDFATYYCQQSYSTPRTFGQGTKVDIKR
notes: Whole antibody: human gamma 4 and human kappa constant regions (pG4D100, pKN100), CHO cells
For B1, the “IC50 in TF1 cell proliferation assay, 100 pM TGFβ isoform” value [1] was 12 nM, the “IC50 in TF1 neutralisation assay, 6H1 IgG4 from a CHO cell line” value [1] was 15 nM and the “IC50 in TF1 cell proliferation assay, 100 pM TGFβ isoform” value [2] was ~20 nM. The “I.C.50 in TF1 assay (neutralisation of TGFβ2 inhibition of TF1 cell proliferation)” value [3] was 100 nM, the Kd [4] was ~2 nM and the binding result [5] was “no binding”. The binding result [6] was “no binding” and the IC50 [7] was ~10 nM.

B2: 6A5 IgG4 (antibody, V domains shown)
VH: EVQLVESGGGVVQPGRSLRLSCAASGFTFSSYGMHWVRQAPGKGLEWVAVIWYDGSNKYYADSVKGRFTISRDNSKNTLYLQMDSLRAEDTAVYYCGRTLESSLWGQGTLVTVSS
VL: SSELTQDPAVSVALGQTVRITCQGDSLRSYYASWYQQKPGQAPVLVIYGKNNRPSGIPDRFAGSNSGNTASLTITGAQAEDEADYYCSSRDSSGNHVVFGGGTKLTVLG
notes: Whole antibody: human gamma 4 and human lambda constant regions (pG4D100, pLN10), CHO cells
For B2, the “I.C.50 in TF1 assay (neutralisation of TGFβ2 inhibition of TF1 cell proliferation)” value [3] was 150 nM, the binding result [8] was “no binding” and the binding result [9] was “no binding”. B2: no binding [10]; no binding [11]; no binding [12]. B2: no binding [13]; no binding [14]; no binding [15]. It also gave an IC50 [7] of ~6 nM.

B3: 27C1/10A6 IgG4 (antibody, V domains shown)
VH: QVQLVESGGGVVQPGRSLRLSCAASGLTFSSYDMHWVRQPPAKGLEWVAVISYDGSSKYYADSVKGRFTISRDNSKNTLYLQMNSLRAEDTAVYYCARTGEYSGYDTSGVELWGQGTTVTVSS
VL: HVILTQDPAVSVALGQTVRITCQGDSLKSYYASWYQQKPGQAPVLVIYGENSRPSGIPDRFSGSSSGNTASLTITGAQAEDEADYYCNSRDSSGTHLEVFGGGTKLTVLG
notes: Whole antibody: human gamma 4 constant region (pG4D100) and human lambda constant region (pLN10), made in CHO cells
With B3 the “fold higher dissociation constant compared to TGFβ1” value [16] was ≥ 10 fold, the Kd [17] was ~5 nM and the binding result [18] was “no binding”. For the same binder, the IC50 [19] was 9 nM.

B4: 10A6 scFv (scFv)
scFv: QVQLVESGGGVVQPGRSLRLSCAASGFTFSSYGMHWVRQAPGKGLEWVAVISYDGSNKYYADSVKGRFTISRDNSKNTLYLQMNSLRAEDTAVYYCAKTGEYSGYDSSGVDVWGKGTTVTVSSGGGGSGGGGSGGGGSHVILTQDPAVSVALGQTVRITCQGDSLKSYYASWYQQKPGQAPVLVIYGENSRPSGIPDRFSGSSSGNTASLTITGAQAEDEADYYCNSRDSSGTHLEVFGGGTKLTVLG
notes: Light chain shuffle of 1-B2
B4 was tested, and the “ELISA signal, fold over the signal on TGFβ2 and TGFβ3” value [20] was ≥ 5 fold.

— patent US20050049403A1 (CAMBRIDGE ANTIBODY TECHNOLOGY, published 2005)
